{"source": "the DeepSol protein solubility set", "data": [{"assay": "soluble on expression in E. coli; label from the status in PepcDB or PDB records", "values": [{"sequence": "MSYFGGLISTLFERRYQQALSDEVDSRTTCELCEALLSSHGEVSGVTLARNLLDRYAAMTEAEKTALFGFMAHDLEIDPDAVTHTLEAYKNNPGKDTYRAFAAACEPRRQELARRLNQVPGATGQLVQMRKDLLRMMKDHPDLEPVDVDFKHLFSSWFNRGFLVLRPIDWSSPANILEQIIAYEAVHEIDSWDELRRRLQPSDRRCFGFFHPSMADEPLIFVEVALTEGVPSSVQDLLADERDVITAQDADTAVFYSISNCQSGLAGISFGNSLIKQVVADLAKDLPGLTTFVTLSPIPGLNRWLQDADIDALKDADTQALAAHYLLEAKRSDGMPFDPVARFHLGNGALVHAVHAEADVSPNGRKQSNGAMVNYLYDLSQISQNHEKFVGDKIVVASTTVKALSGSVTTSLGTAAAAAALEHHHHHH", "soluble on expression in E. coli": "soluble"}, {"sequence": "MKKVQTPLFQGITENEWNEMQNCSCMRQQSFEKNELIFRMGESVREIGIVLTGSVNIENVDLWGNKSLLSNISAGQVFAETYAFCQEPLMVNAVAAEYTNLLFLNLETLMQPRYKDTLWTDKIMQNLLRISIYKNLILSNRIFCTTPKTIRGRLLIYLSSQASKAESTVFQISFNRQELADYLNLDRSALSKELGKMRDEGILEFRKNQFVLHQLPE", "soluble on expression in E. coli": "not soluble"}, {"sequence": "MLAHLEELKKNIEGDLYFDLTMRTLYATDASVYRELPLAVARPKHKQDVQKIIAFANKYKIGIIPRTAGTSLAGQVVGKGIIVDVSKYFTE", "soluble on expression in E. coli": "not soluble"}, {"sequence": "MSLKIAIVNDMPMAVEALRRALAFDPSHEVVWVATNGAEAVKYCAELTPDLILMDLIMPVMDGVEATRRIMAESPCAIVIVTVDRQQNVHRVFEAMGHGALDVVDTPALGAGNAQEAAAPLLRKILNIGWLIGQRGSRVRSAPQPLRSGAPRQSLVAIGSSAGGPAALEVLLKGLPKDFAAAIVLVQHVDQVFAAGMAEWLSSASGLEVRLAREGEPPQSGKVLLAGTNHHIRLLKNGTLAYTAEPVNEIYRPSIDVFFESVASFWNGDAVGVLLTGMGRDGAQGLKLMRDQGYLTIAQDQNSSAVYGMPKAAAAIGAASEIRPLDKIAPRLLEIFAKEGHHHHHH", "soluble on expression in E. coli": "soluble"}, {"sequence": "MDRMKIEAVIFDWAGTTVDYGCFAPLEVFMEIFHKRGVAITAEEARKPMGLLKIDHVRALTEMPRIASEWNRVFRQLPTEADIQEMYEEFEEILFAILPRYASPINAVKEVIASLRERGIKIGSTTGYTREMMDIVAKEAALQGYKPDFLVTPDDVPAGRPYPWMCYKNAMELGVYPMNHMIKVGDTVSDMKEGRNAGMWTVGVILGSSELGLTEEEVENMDSVELREKIEVVRNRFVENGAHFTIETMQELESVMEHIEKQELIIS", "soluble on expression in E. coli": "soluble"}, {"sequence": "GLDVAISQNGFFRLVDSNGSVFYSRNGQFKLDENRNLVNMQGMQLTGYPATGTPPTIQQGANPAPITIPNTLMAAKSTTTASMQINLNSTDPVPSKTPFSVSDADSYNKKGTVTVYDSQGNAHDMNVYFVKTKDNEWAVYTHDSSDPAATAPTTASTTLKFNENGILESGGTVNITTGTINGATAATFSLSFLNSMQQNTGANNIVATNQNGYKPGDLVSYQINNDGTVVGNYSNEQEQVLGQIVLANFANNEGLASQGDNVWAATQASGVALLGTAGSGNFGKLTNGALEASNVDLSK", "soluble on expression in E. coli": "soluble"}, {"sequence": "MDDLADCREVFAYFDSKGDERISVQQVGDVLRALGQNPTEAEIHKCVGSFDREARLSFEDFVPIFQSVSKNREKHTVEEFVEGLSHFDKEGNGMINVAELRHLLTTLGERLSDEDVDQLLSGHNDSHGNVNISDFVRAVMNS", "soluble on expression in E. coli": "soluble"}, {"sequence": "LEKNDLVYMQRAFELNDKVAKDIMIDRTQLVVIDITSTVKEALNVYLQERFSRLPVVADNDKDKVLGYVYNYDLTRQQQVDSSVRVDKLIRDISTTPETTPITQVLQQMIKKRTPIVVVVDEYGGTSGIITDKDIYEEL", "soluble on expression in E. coli": "not soluble"}, {"sequence": "MGSDKIHHHHHHMLYADENSFDIGAKITKTKPVLLPIGAVEAHGPHLPLGTDNILASEYSAKIAAETSGFVLPVLPYGQVWSLQDFPGSLTLSNETVTKVVVEIGESLYKQGFRLFVPVSGHLGNMAALKDAARELYAKYPDMVILHIFYPNIQKLAMDVREGNANHHTYIHACEIETSLMLYLSPENADMSRAIDDPPILPIDADFTPTPWQNFTKTAVLGEATLATAEKGEYLIEKTLKTCVELIKLEQEKIRKSTEME", "soluble on expression in E. coli": "not soluble"}, {"sequence": "MGSDKIHHHHHHMGCGVTVANASVYALPVRGNIVGALEAVTTHRDDTLLDIGRFYDLGYNQVTAANPGVNPWLPGQASKVVIPAEYILPPKPWTGIIVDIPARRIYYFPVNDRVVYTYPVGVFLPGWKEALTDTRIIAKFKMPAWNVPKNIHAWFEKKFHMDIPWYWPPGPENPMGELAMETGLSGIFIHGTYHPWGVGMRASQGCFQMFPENVAQLFPMVPVGTPVRIIDQPNLVGVRDGQVYLQSYKPMHAYHKKGIPELQRAVVTIKSFMERNRIEERIDWGMVRRIVTEHNTVALPIGVGAPSYATLSAALPATPYAYAPYGPSANGAAVPPPLPLASAADQEHLHVQVTFPDQKP", "soluble on expression in E. coli": "not soluble"}, {"sequence": "MASMGVPALFRLLSRKFAKVITPVIEAPTEKLPDGTEIEPDLSLPNPNGVECDNLYLDMNGIVHPCSHPEDRPAPETEDEMMVAVFEYTDRILAMVRPRQLLFIAIDGVAPRAKMNQQRSRRFRSSREAALKEEELQAFIEEAKQQGIPIDENATKKKSWDSNCITPGTPFMDTLAKSLRYYIINKLNSDPCWRNVRFILSDASVPGEGEHKIMEFIRSQRVKPEYDPNTHHVVYGLDADLIMLGLATHEPHFRVLREDVFFQQGSTKKTKEERLGIKRLDDVSETNKVPVKKPFIWLNVSILREYLEVELYVPNLPFPFDLERAIDDWVFFIFFVGNDFLPHLPSLDIRDGAVERLTEIWRASLPHMGGYLTLDGSVNLARAEVILSAVGNQEDDIFKRLKQQEDRRNENYRRRQQRESNQESESYVDNVVIQRSVETQSTEVVTSSKSTSVDTKPPKKTQKIDAPAPVDLVNLSEKTSNRSLGATNRELINNRAANRLGLSREAAAVSSVNKLAASALKAQLVSNETLQNVPLEDSIASSSAYEDTDSIESSTPVVHPIDTKVSNVGQKRKAPDSTEENENTDTVRLYEPGYRERYYEQKFHISPDEPEKIREAVKHYVHGLCWVLLYYYQGCPSWTWYYPYHYAPFAADFKDLASIDVKFELNQPFKPYEQLLGVLPAASKNNLPEKLQTLMTDENSEIIDFYPENFTIDLNGKKFEWQGVALLPFIDENRLLNAVSKIYPQLTEEESKRNEDGSTLLFISEHHPMFSELVKQLYSKKRQGKPLKLSGKMAHGLFGKVNTNDSVIPNVSVQCPIDVTSADALQKYGSIDDNQSISLVFEVPKSHFVHKSMLLRGVKMPNRVLTPEDINQVRAERSFSSRRNNGNSAAALEHHHHHH", "soluble on expression in E. coli": "soluble"}, {"sequence": "MLDLNRKLAKLEEEGKKIKVALIGAGHMGNGMVSQMANMKGIEASIVVDINLELAHKAFTDAGIDEEIIDNVTNEKDAEIKLQEGKVLTCNDFLVACKTKSIDVVIDATGGIAIGAEIALNSILNKKHIVMLNAETDCVVGPILKKLADDAGVIFTGSAGDEPGAVMELFDFADAMGFEVRVIGKGKNNKLDLDCNPDTVREEAERKGASPHMIASFKEGTKTMVEMALMCNATGFVPDVRGGHGIEATVNEVPKKYALKSEGGVLDNYGVVDFVNGIAPGVFVVVAHKLKAVNDELKYLSMGDGPNYILYRPYHLCSLETPLSAAMAVLDHKATIVPKAGLVAEVMTIAKKDLKKGEFMDGYGAYTCYGTIEKYDVAKAMNAVPIGLISKKTKVVKDIKKGEVITYDMVEIEKDTTLYHLRQLQEKIFG", "soluble on expression in E. coli": "not soluble"}, {"sequence": "MSTCTLRFKNDWLKIFTCPVPSSDFLSFVGVATIDAPQHAVLSLLYDIESATEWVWKTREMRVLQELADDNEGRVVYQVVSAPWPVSDREIISRSTAYKDPETGEVFIKIESLPDFIPETSNCVRVRKLEGAWNILPLSENSCRVVFRLHIEPAGEIPSWLANIAVIDTPYHTLNNMRDMVKREKYKNPLEHHHHHH", "soluble on expression in E. coli": "not soluble"}, {"sequence": "GPLGSMSGPVPSRARVYTDVNTHRPREYWDYESHVVEWGNQDDYQLVRKLGRGKYSEVFEAINITNNEKVVVKILKPVKKKKIKREIKILENLRGGPNIITLADIVKDPVSRTPALVFEHVNNTDFKQLYQTLTDYDIRFYMYEILKALDYCHSMGIMHRDVKPHNVMIDHEHRKLRLIDWGLAEFYHPGQEYNVRVASRYFKGPELLVDYQMYDYSLDMWSLGCMLASMIFRKEPFFHGHDNYDQLVRIAKVLGTEDLYDYIDKYNIELDPRFNDILGRHSRKRWERFVHSENQHLVSPEALDFLDKLLRYDHQSRLTAREAMEHPYFYTVVKDQARMG", "soluble on expression in E. coli": "soluble"}, {"sequence": "MNVSFSTSSLSVSNSRTRLISFRETEHGDQKSSEEWKTSTKLEALGSMEGELAHLLSTCKPETLNHNKTELSGFRNLFARFLRAKPTVDWSKIEPLPEGAIRPYKSLGHVVDKELIASQLRKLVVVKLNGGLGTSMGCKGPKSVISVRNDLTFLDLTMQQIQTLNKTYGVDVPLVLMNSFNTNEDTQKVLKKYANVKVSVHTFSQSQYPRINRETLLPIVKSLEADDNECWYPPGHGNFYEAFHNSGLLDKFLADGKEYCFLSNIDNMGATVDLSILNFVLNPSPDQTAPEFLMEVTDKTRADVKGGTLIQYEGRLMLLEIAQVPKDYVDEFKSISKFRIFNTNNLWAKLDAMRKIVVENKLEMEVIVNPKHLDRGLDVIQLETAAGAAIKSFSGAVGVNVPRSRFLPVKKTSDLLLLMSNLYDIDNGSLTLSHQRSFPTTPLVKLGSSFDKVKDYLGRFNGIPDLLELDHLTVSGDVWFGKDVSLKGTVIIIANHGDRIDIPPGSILENKIVSGNLRILEH", "soluble on expression in E. coli": "not soluble"}, {"sequence": "KYIMHQTTPNYTVTLLAALLPWQFFQGAVQGSTTSIISNSNLIKKIYFPRQIMPLSI", "soluble on expression in E. coli": "not soluble"}, {"sequence": "MGSSHHHHHHSSGLVPRSHMEQLEEDCVHRYGVNAFVLYRLPVVKEGMVVGIVGPNGTGKSTAVKILAGQLIPNLCGDNDSWDGVIRAFRGNELQNYFEKLKNGEIRPVVKPQYVDLIPKAVKGKVIELLKKADETGKLEEVVKALELENVLEREIQHLSGGELQRVAIAAALLRNATFYFFDEPSSYLDIRQRLNAARAIRRLSEEGKSVLVVEHDLAVLDYLSDIIHVVYGEPGVYGIFSQPKGTRNGINEFLRGYLKDENVRFRPYEIKFTKTGERVEIERETLVTYPRLVKDYGSFRLEVEPGEIKKGEVIGIVGPNGIGKTTFVKMLAGVEEPTEGKIEWDLTVAYKPQYIKADYEGTVYELLSKIDASKLNSNFYKTELLKPLGIIDLYDREVNELSGGELQRVAIAATLLRDADIYLLDEPSAYLDVEQRLAVSRAIRHLMEKNEKTALVVEHDVLMIDYVSDRLMVFEGEPGKYGRALPPMGMREGMNRFLASIGITFRRDPDTGRPRANKEGSVKDREQKEKGEYYYIA", "soluble on expression in E. coli": "soluble"}, {"sequence": "MKSEKETIYDYAAELKLLSFKEELECTLSLAAEENWNHLQFLTELLGKESARRRECRRRSRIRSAGFPQMKYLHELVMEDMPKEAQVILPELETLDFIRQGRNLVLYGNPGTGKTHIATALGIKACQQDFTVLFTSVPVLLTQIREAKSAKTLRTLQLRFEKYDLVICDEFGYVSCDKEGGELLFNHLSLRAGKKATIITTNLAFNRWNEIIKDKVLVAAMVDRLTHKAYLVNMTGLSYRLKETQKMRQDKLEHHHHHH", "soluble on expression in E. coli": "not soluble"}, {"sequence": "MPQVAKTYESLAREAADNNLDYEEYLLCVLEQEVHQRENNRIQRGIRQAGFPVIKTIESFDFLAIPSLNKPRVLKLMQGEYIRRRENVILIGNSGVGKTHIATALGYEACRQGMKVKFYTAAGLINELLAAQQEYRLNKLEKQWLAPHLVILDELGYVPFSKIGAELLFQFCSSRYERGSLIITTNLEFPRWTEVLGDEQMTAALLDRLTHNAHILNINGESYRFKQALSKQANND", "soluble on expression in E. coli": "soluble"}]}]}
